{"source": "paper PMC8563704", "about": "“Gain-of-Function Properties of a Dynamin 2 Mutant Implicated in Charcot-Marie-Tooth Disease” (Frontiers in Cellular Neuroscience, 2021)", "biological_target": "the molecule itself", "test": "fluorescence fluctuation spectroscopy (brightness analysis); EGFP-tagged dynamins in the cytosol of living U2OS cells, as a function of concentration; two-photon excitation at 1,000 nm; brightness normalised to monomeric EGFP", "data": [{"protein": "DNM2^WT-EGFP (enzyme, rat, UniProt P39052-1 1-870, looked up, dynamin 2, rat, isoform 1 (ba, IIBA), UniProtKB P39052-1; The template cDNAs carried C-terminal His6 tags; also called EGFP-tagged DNM2^WT; source: expressed in U2OS cells (brightness analysis); NIH-3T3 cells (FLIM-FRET); not shown: EGFP, C-terminal, kept) MGNRGMEELIPLVNKLQDAFSSIGQSCHLDLPQIAVVGGQSAGKSSVLENFVGRDFLPRGSGIVTRRPLILQLIFSKTEYAEFLHCKSKKFTDFDEVRQEIEAETDRVTGTNKGISPVPINLRVYSPHVLNLTLIDLPGITKVPVGDQPPDIEYQIKDMILQFISRESSLILAVTPANMDLANSDALKLAKEVDPQGLRTIGVITKLDLMDEGTDARDVLENKLLPLRRGYIGVVNRSQKDIEGRKDIRAALAAERKFFLSHPAYRHMADRMGTPHLQKTLNQQLTNHIRESLPTLRSKLQSQLLSLEKEVEEYKNFRPDDPTRKTKALLQMVQQFGVDFEKRIEGSGDQVDTLELSGGARINRIFHERFPFELVKMEFDEKDLRREISYAIKNIHGVRTGLFTPDLAFEAIVKKQVVKLKEPCLKCVDLVIQELISTVRQCTSKLSSYPRLREETERIVTTYIREREGRTKDQILLLIDIEQSYINTNHEDFIGFANAQQRSTQLNKKRAIPNQGEILVIRRGWLTINNISLMKGGSKEYWFVLTAESLSWYKDEEEKEKKYMLPLDNLKIRDVEKGFMSNKHVFAIFNTEQRNVYKDLRQIELACDSQEDVDSWKASFLRAGVYPEKDQAENEDGAQENTFSMDPQLERQVETIRNLVDSYVAIINKSIRDLMPKTIMHLMINNTKAFIHHELLAYLYSSADQSSLMEESAEQAQRRDDMLRMYHALKEALNIIGDISTSTVSTPVPPPVDDTWLQNTSSHSPTPQRRPVSSVHPPGRPPAVRGPTPGPPLIPMPVGATSSFSAPPIPSRPGPQNVFANNDPFSAPPQIPSRPARIPPGIPPGVPSRRAPAAPSRPTIIRPAEPSLLD", "values": [{"measurement": "stoichiometry N", "result": "~4"}]}, {"protein": "DNM2^K562E-EGFP (enzyme, rat, UniProt P39052-1 1-870, looked up, dynamin 2, rat, isoform 1 (ba, IIBA), UniProtKB P39052-1, with the CMT-linked mutation K562E; The template cDNAs carried C-terminal His6 tags; also called EGFP-tagged DNM2^K562E; source: expressed in U2OS cells; not shown: EGFP, C-terminal, kept) MGNRGMEELIPLVNKLQDAFSSIGQSCHLDLPQIAVVGGQSAGKSSVLENFVGRDFLPRGSGIVTRRPLILQLIFSKTEYAEFLHCKSKKFTDFDEVRQEIEAETDRVTGTNKGISPVPINLRVYSPHVLNLTLIDLPGITKVPVGDQPPDIEYQIKDMILQFISRESSLILAVTPANMDLANSDALKLAKEVDPQGLRTIGVITKLDLMDEGTDARDVLENKLLPLRRGYIGVVNRSQKDIEGRKDIRAALAAERKFFLSHPAYRHMADRMGTPHLQKTLNQQLTNHIRESLPTLRSKLQSQLLSLEKEVEEYKNFRPDDPTRKTKALLQMVQQFGVDFEKRIEGSGDQVDTLELSGGARINRIFHERFPFELVKMEFDEKDLRREISYAIKNIHGVRTGLFTPDLAFEAIVKKQVVKLKEPCLKCVDLVIQELISTVRQCTSKLSSYPRLREETERIVTTYIREREGRTKDQILLLIDIEQSYINTNHEDFIGFANAQQRSTQLNKKRAIPNQGEILVIRRGWLTINNISLMKGGSKEYWFVLTAESLSWYKDEEEKEKEYMLPLDNLKIRDVEKGFMSNKHVFAIFNTEQRNVYKDLRQIELACDSQEDVDSWKASFLRAGVYPEKDQAENEDGAQENTFSMDPQLERQVETIRNLVDSYVAIINKSIRDLMPKTIMHLMINNTKAFIHHELLAYLYSSADQSSLMEESAEQAQRRDDMLRMYHALKEALNIIGDISTSTVSTPVPPPVDDTWLQNTSSHSPTPQRRPVSSVHPPGRPPAVRGPTPGPPLIPMPVGATSSFSAPPIPSRPGPQNVFANNDPFSAPPQIPSRPARIPPGIPPGVPSRRAPAAPSRPTIIRPAEPSLLD", "values": [{"measurement": "stoichiometry N", "result": "~4"}]}, {"protein": "DNM2^ΔDEE-EGFP (enzyme, rat, UniProt P39052-1 1-870, looked up, dynamin 2, rat, isoform 1 (ba, IIBA), UniProtKB P39052-1, with the CMT-linked deletion of residues 555DEE557; Deletion introduced into the EGFP-tagged DNM2^WT template; also called EGFP-tagged DNM2^Δ ^DEE; source: expressed in U2OS cells (brightness analysis); NIH-3T3 cells (FLIM-FRET); not shown: EGFP, C-terminal, kept) MGNRGMEELIPLVNKLQDAFSSIGQSCHLDLPQIAVVGGQSAGKSSVLENFVGRDFLPRGSGIVTRRPLILQLIFSKTEYAEFLHCKSKKFTDFDEVRQEIEAETDRVTGTNKGISPVPINLRVYSPHVLNLTLIDLPGITKVPVGDQPPDIEYQIKDMILQFISRESSLILAVTPANMDLANSDALKLAKEVDPQGLRTIGVITKLDLMDEGTDARDVLENKLLPLRRGYIGVVNRSQKDIEGRKDIRAALAAERKFFLSHPAYRHMADRMGTPHLQKTLNQQLTNHIRESLPTLRSKLQSQLLSLEKEVEEYKNFRPDDPTRKTKALLQMVQQFGVDFEKRIEGSGDQVDTLELSGGARINRIFHERFPFELVKMEFDEKDLRREISYAIKNIHGVRTGLFTPDLAFEAIVKKQVVKLKEPCLKCVDLVIQELISTVRQCTSKLSSYPRLREETERIVTTYIREREGRTKDQILLLIDIEQSYINTNHEDFIGFANAQQRSTQLNKKRAIPNQGEILVIRRGWLTINNISLMKGGSKEYWFVLTAESLSWYKEKEKKYMLPLDNLKIRDVEKGFMSNKHVFAIFNTEQRNVYKDLRQIELACDSQEDVDSWKASFLRAGVYPEKDQAENEDGAQENTFSMDPQLERQVETIRNLVDSYVAIINKSIRDLMPKTIMHLMINNTKAFIHHELLAYLYSSADQSSLMEESAEQAQRRDDMLRMYHALKEALNIIGDISTSTVSTPVPPPVDDTWLQNTSSHSPTPQRRPVSSVHPPGRPPAVRGPTPGPPLIPMPVGATSSFSAPPIPSRPGPQNVFANNDPFSAPPQIPSRPARIPPGIPPGVPSRRAPAAPSRPTIIRPAEPSLLD", "values": [{"measurement": "stoichiometry N", "result": "~4"}]}, {"protein": "DNM2^A618T-EGFP (enzyme, rat, UniProt P39052-1 1-870, looked up, dynamin 2, rat, isoform 1 (ba, IIBA), UniProtKB P39052-1, with the CNM-linked mutation A618T; The template cDNAs carried C-terminal His6 tags; also called EGFP-tagged DNM2^A618T; source: expressed in U2OS cells; not shown: EGFP, C-terminal, kept) MGNRGMEELIPLVNKLQDAFSSIGQSCHLDLPQIAVVGGQSAGKSSVLENFVGRDFLPRGSGIVTRRPLILQLIFSKTEYAEFLHCKSKKFTDFDEVRQEIEAETDRVTGTNKGISPVPINLRVYSPHVLNLTLIDLPGITKVPVGDQPPDIEYQIKDMILQFISRESSLILAVTPANMDLANSDALKLAKEVDPQGLRTIGVITKLDLMDEGTDARDVLENKLLPLRRGYIGVVNRSQKDIEGRKDIRAALAAERKFFLSHPAYRHMADRMGTPHLQKTLNQQLTNHIRESLPTLRSKLQSQLLSLEKEVEEYKNFRPDDPTRKTKALLQMVQQFGVDFEKRIEGSGDQVDTLELSGGARINRIFHERFPFELVKMEFDEKDLRREISYAIKNIHGVRTGLFTPDLAFEAIVKKQVVKLKEPCLKCVDLVIQELISTVRQCTSKLSSYPRLREETERIVTTYIREREGRTKDQILLLIDIEQSYINTNHEDFIGFANAQQRSTQLNKKRAIPNQGEILVIRRGWLTINNISLMKGGSKEYWFVLTAESLSWYKDEEEKEKKYMLPLDNLKIRDVEKGFMSNKHVFAIFNTEQRNVYKDLRQIELACDSQEDVDSWKTSFLRAGVYPEKDQAENEDGAQENTFSMDPQLERQVETIRNLVDSYVAIINKSIRDLMPKTIMHLMINNTKAFIHHELLAYLYSSADQSSLMEESAEQAQRRDDMLRMYHALKEALNIIGDISTSTVSTPVPPPVDDTWLQNTSSHSPTPQRRPVSSVHPPGRPPAVRGPTPGPPLIPMPVGATSSFSAPPIPSRPGPQNVFANNDPFSAPPQIPSRPARIPPGIPPGVPSRRAPAAPSRPTIIRPAEPSLLD", "values": [{"measurement": "stoichiometry N", "result": "20 to 24"}]}]}
